Reference: patent publication US20120129768A1
Non-standard residues stand in square brackets, D forms with d. No end group written: not given here.

Biological target: Glucagon-like peptide-1 receptor (GLP1R)
Experiment: cell-based or functional assay

B1: HS-20003 (peptide)
peptide: H[dA]EGTFTSDVSSYLEEEAAKEFIAWLVRGGPSSGAPPPSK
modifications: not fully specified (residue 40); also: palmitoyl on alpha-amino of C-terminal Lys, chain built on its epsilon amino
For B1, the EC50 (nM), cAMP-response-element luciferase reporter in HEK293 cells with GLP1R was 0.000719 nM and the Maximum reaction rate (%) was 87.9%.
